Assay results from patent publication US20210087239A1 (ACADEMIA SINICA, published 2021).
Positions count from the first letter of the chain named. In names and notes the source's numbering stands.

T1: β-catenin (human, UniProt P35222 2-781)
T1 construct: Endogenous protein co-immunoprecipitated from cell lysates or nuclear fractions; also called nuclear β-catenin
T1 sequence (looked up): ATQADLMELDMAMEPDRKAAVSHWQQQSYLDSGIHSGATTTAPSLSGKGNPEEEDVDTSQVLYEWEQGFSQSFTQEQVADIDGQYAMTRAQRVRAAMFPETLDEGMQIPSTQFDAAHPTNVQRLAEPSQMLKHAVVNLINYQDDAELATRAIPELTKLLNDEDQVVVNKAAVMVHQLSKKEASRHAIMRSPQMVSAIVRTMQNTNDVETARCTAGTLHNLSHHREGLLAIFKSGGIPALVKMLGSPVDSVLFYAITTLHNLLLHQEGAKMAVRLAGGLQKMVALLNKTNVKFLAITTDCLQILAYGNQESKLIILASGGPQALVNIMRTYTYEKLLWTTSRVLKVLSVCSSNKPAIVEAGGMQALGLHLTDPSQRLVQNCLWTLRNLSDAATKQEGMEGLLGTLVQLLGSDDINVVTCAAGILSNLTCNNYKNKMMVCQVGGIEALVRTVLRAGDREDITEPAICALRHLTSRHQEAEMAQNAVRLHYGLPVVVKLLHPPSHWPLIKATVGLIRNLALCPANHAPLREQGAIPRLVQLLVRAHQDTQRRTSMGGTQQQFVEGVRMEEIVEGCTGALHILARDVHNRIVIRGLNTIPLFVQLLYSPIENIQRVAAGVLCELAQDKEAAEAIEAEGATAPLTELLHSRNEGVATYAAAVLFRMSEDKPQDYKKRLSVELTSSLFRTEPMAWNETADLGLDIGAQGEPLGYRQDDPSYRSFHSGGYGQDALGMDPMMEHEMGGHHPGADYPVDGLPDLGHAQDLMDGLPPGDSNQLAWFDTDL

T2: HA-tagged PSPC1 (wild type) (human, UniProt Q8WXF1 1-523)
T2 construct: Full-length PSPC1 cDNA cloned into pcDNA3.0-HA and expressed in 293T or SK-hep1 cells; also called HA-PSPC1; wild-type PSPC1; not shown: HA tag from the pcDNA3.0-HA plasmid
T2 sequence: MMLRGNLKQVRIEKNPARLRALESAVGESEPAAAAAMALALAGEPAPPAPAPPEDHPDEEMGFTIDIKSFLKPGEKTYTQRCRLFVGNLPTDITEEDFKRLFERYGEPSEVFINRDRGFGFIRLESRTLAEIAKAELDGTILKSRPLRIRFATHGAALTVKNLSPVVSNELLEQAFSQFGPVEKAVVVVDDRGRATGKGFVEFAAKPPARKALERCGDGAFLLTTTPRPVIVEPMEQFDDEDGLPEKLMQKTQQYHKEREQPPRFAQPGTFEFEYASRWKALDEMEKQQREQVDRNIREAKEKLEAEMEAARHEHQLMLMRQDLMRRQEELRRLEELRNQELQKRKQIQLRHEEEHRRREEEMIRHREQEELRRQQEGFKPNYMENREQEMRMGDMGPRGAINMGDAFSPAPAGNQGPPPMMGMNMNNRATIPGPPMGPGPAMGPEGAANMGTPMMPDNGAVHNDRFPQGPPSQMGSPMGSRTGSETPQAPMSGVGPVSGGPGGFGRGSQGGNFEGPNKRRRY

B1: EGFP-conjugated PSPC1-CT131 (PSPC1 C-terminal 131 fragment) (other)
chain: MGDMGPRGAINMGDAFSPAPAGNQGPPPMMGMNMNNRATIPGPPMGPGPAMGPEGAANMGTPMMPDNGAVHNDRFPQGPPSQMGSPMGSRTGSETPQAPMSGVGPVSGGPGGFGRGSQGGNFEGPNKRRRY
notes: PSPC1-CT131 cloned into pEGFP-C2 and expressed in Mahlavu cells; also called PSPC1-CT131-EGFP; EGFP-PSPC1-CT; not shown: EGFP from the pEGFP-C2 plasmid
B2: Paraspeckle component 1 (PSPC1), human (other)
chain: T2 sequence
notes: Endogenous PSPC1 of human HCC cell lines (Huh-7, Mahlavu); also called endogenous PSPC1; nuclear PSPC1
B3: PSPC1-Y523F mutant (HA-tagged) (other)
chain: T2 sequence with Y523F
notes: All PSPC1 mutants were generated in a pCDNA3.0-HA plasmid; also called Y523F PSPC1 mutant; HA-tagged Y523F mutant; not shown: HA tag from the pCDNA3.0-HA plasmid
B4: Flag-tagged PTK6 kinase-dead mutant (PTK6-K219M) (enzyme)
chain: not shown
notes: also called PTK6-KM; KM mutant; not shown: Flag tag

Assays:
[1] = molecular target: B2; assay: conclusion drawn from expression and fractionation experiments in Mahlavu cells; no direct binding assay described
β-catenin [2] = molecular target: T1, β-catenin; assay: IP/western blotting, Huh-7 cells with HGF stimulation (FIG. 3b)
Description: (§1) (a-b) Huh-7 treated with or without HGF (10 ng/ml) for EMT induction. Under HGF stimulation, nuclear PSPC1 interacted with β-catenin and loss of PTK6 interaction owing to an increase of cytosolic PTK6 accumulation in HGF-induced EMT model in IP/westem blotting analysis. Arrowhead is the IgG heavy chain. Arrows are indicated proteins after IB. (c) Nuclear (SP1 as marker) and cytosolic (α-tubulin as marker) localization of PSPC1/PTK6 interaction and β-catenin analyzed by western blotting analysis in SK-hep1 cells. PSPC1-Y523F mutant further enhanced nuclear localization of β-catenin. (d) Nuclear (SP1 as marker) localization of PSPC1/PTK6 interaction and βcatenin analyzed by IP/western blotting analysis in SK-hep1 cells. Y523F PSPC1 mutant further enhanced nuclear interaction with β-catenin but not PTK6. […] Promoter activation (fold) was calculated relative to vector alone (Mock) in cells. […] (h) Secreted cytokines Wnt1 and Wnt3a protein expression measured by ELISA assays of conditional medium after transfection of divergent PSPC1/PTK6 expression constructs in SK-hep1 cells.

β-catenin [3] = molecular target: T1, β-catenin; assay: IP/western blotting of nuclear fraction, SK-hep1 cells (FIG. 3d)
Description: as §1

[4] = molecular target: T2, HA-tagged PSPC1 (wild type); assay: subcellular fractionation and western blotting, SK-hep1 cells (FIG. 1e)

B1: binds [1].

B2: binds (β-catenin [2]).

B3: binds (β-catenin [3]).

B4: no binding [4].
